Our source for the protein stability index values is the supplement of paper PMC10567573.

B1: SEPHS2 (parent)
chain: KASGRFGLLQGTSAETSGGLLICL
B2: KLHL14 (parent)
chain: WLYCYDPVMDVWARKQDMNTKRAI
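Also: lentivirally expressed fusions sorted by FACS into six bins by GFP to DsRed ratio, PSI derived from sequencing read proportions per bin multiplied by bin number.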

Variants of B1 are the subject of one series. Kind of series: protein stability index of a GFP-peptide fusion (GPS, HEK-293T) (PSI 1-6); higher = more stable. Conditions: c terminus: a fixed tail appended.
Take KASGRFGLLQGTSAETSGLLLICL [G19L]: the protein stability index turned out to be 2.19.

On to KASGRFGLLQGTSAETSGTLLICL [G19T], for which the protein stability index turned out to be 1.74. The same measure, in the same setting: the result for KASGRFGLLQGTSAETSGALLICL [G19A] reads 3.71; that for KASGRFGLLQGTSAETSGGGLICL [L20G], 1.96. In the case of KASGCFGLLQGTSAETSGGLLICL [R5C], the protein stability index worked out at 2.27. Turning to KASGHFGLLQGTSAETSGGLLICL [R5H], the protein stability index is 3.5. Consider KASGIFGLLQGTSAETSGGLLICL [R5I], for which the protein stability index is 3.36. Consider KASGWFGLLQGTSAETSGGLLICL [R5W], for which the protein stability index stood at 1.66. Regarding KASGRFGLLQGTSAETSGGLLPCL [I22P], the protein stability index turned out to be 3.43. Still for that read-out and setting: to KASGRFGLLQGTSAETSGGLLWCL [I22W] belongs 1.58. For the variant KASGRFGLLQGTSAETSGGLLHCL [I22H], the protein stability index turned out to be 2.42. As for KASGRFGLLVGTSAETSGGLLICL [Q10V], the protein stability index is 3.11. The same measure, in the same setting: to TASGRFGLLQGTSAETSGGLLICL [K1T] belongs 1.69; to LASGRFGLLQGTSAETSGGLLICL [K1L], 2.28. On the same count and under the same terms, the result for KASGRFDLLQGTSAETSGGLLICL [G7D] reads 3.42.

KASGRFHLLQGTSAETSGGLLICL [G7H]: the protein stability index was determined as 2.78. Still for that read-out and setting: to KASGRFYLLQGTSAETSGGLLICL [G7Y] belongs 2.71. The same measure, in the same setting: the result for KASGRFGFLQGTSAETSGGLLICL [L8F] reads 2.18; that for KASGRFGCLQGTSAETSGGLLICL [L8C], 3.4. In the case of KASGRFGGLQGTSAETSGGLLICL [L8G], the protein stability index was found to be 3.65. On to KASGRFGLLQGTSHETSGGLLICL [A14H], for which the protein stability index amounted to 2.43. As to KASGRFGLLQGTSEETSGGLLICL [A14E], the protein stability index was found to be 2.62. Take KASGRFGLLQGTSTETSGGLLICL [A14T]: the protein stability index was 1.72. Consider KASTRFGLLQGTSAETSGGLLICL [G4T], for which the protein stability index came out at 3.11. KASSRFGLLQGTSAETSGGLLICL [G4S]: the protein stability index is 3.04. The same measure, in the same setting: the result for KASGRWGLLQGTSAETSGGLLICL [F6W] reads 4.73; that for KASGREGLLQGTSAETSGGLLICL [F6E], 2.37. On the same count and under the same terms, to KASGRDGLLQGTSAETSGGLLICL [F6D] belongs 1.03; to KASGRIGLLQGTSAETSGGLLICL [F6I], 2.31.

KASGRSGLLQGTSAETSGGLLICL [F6S]: the protein stability index turned out to be 1.81. As for KASGRKGLLQGTSAETSGGLLICL [F6K], the protein stability index amounted to 1.79. The same measure, in the same setting: the result for KASGRFGLLQGTSAETSGGLLICK [L24K] reads 2.67; that for KASGRFGLLQGTSAETSGGLLICH [L24H], 1.89; that for KASGRFGLLQGTSAETSGGLLICP [L24P], 2.8. Regarding KASGRFGLNQGTSAETSGGLLICL [L9N], the protein stability index was found to be 1.78. The same measure, in the same setting: the result for KASGRFGLYQGTSAETSGGLLICL [L9Y] reads 2.09; that for KASGRFGLLQGTQAETSGGLLICL [S13Q], 1.5. On the same count and under the same terms, the result for KASGRFGLLQGTSAETNGGLLICL [S17N] reads 2.67. Regarding KASGRFGLLQGTSAETFGGLLICL [S17F], the protein stability index stood at 2.78.

Regarding KASGRFGLLQGTSAERSGGLLICL [T16R], the protein stability index was 2.58.

For KASGRFGLLQGTSAESSGGLLICL [T16S], the protein stability index stood at 1.61. On the same count and under the same terms, to KASGRFGLLQGTSAEMSGGLLICL [T16M] belongs 2.06; to KSSGRFGLLQGTSAETSGGLLICL [A2S], 3.5; to KASGRFGLLQGTSAETSGGLLINL [C23N], 1.79. For KASGRFGLLQGTSAETSGGLLIQL [C23Q], the protein stability index came to 1.73. Still for that read-out and setting: to KASGRFGLLQGTSAETSGGLLIHL [C23H] belongs 4.17; to KASGRFGLLQGTSAETSGGLLIKL [C23K], 1.53; to KASGRFGLLQGTSARTSGGLLICL [E15R], 1.37. Same read-out and setting: to KASGRFGLLQGTSAWTSGGLLICL [E15W] belongs 1.66; to KASGRFGLLQGTSAITSGGLLICL [E15I], 1.91; to KASGRFGLLQGTSACTSGGLLICL [E15C], 2.82.

In the case of KASGRFGLLQGTSAETSGGLPICL [L21P], the protein stability index came out at 2.44. Same read-out and setting: the result for KASGRFGLLQGTSAETSGGLYICL [L21Y] reads 1.32. KASGRFGLLQGTSAETSGGLKICL [L21K]: the protein stability index stood at 1.45. Same read-out and setting: the result for KASGRFGLLQGTSAETSGGLNICL [L21N] reads 2.94; that for KASGRFGLLQGTSAETSGGLDICL [L21D], 2.12. Still for that read-out and setting: the result for KASGRFGLLQGLSAETSGGLLICL [T12L] reads 3.67.

The next series covers variants of B2. The description is as above. The following applies: c terminus: a fixed tail appended.
Take WLYCYDPVMDVWARKQDMNTKRTI [A23T]: the protein stability index was 1.76. Same read-out and setting: to WLYCYDPVMDVWARKQDMNTKRII [A23I] belongs 1.57. WLYCYDPVMDVWARKQDMNTKRYI [A23Y]: the protein stability index was 1.92.

In the case of WLYCYDPVMDVWARKQDMNTKRVI [A23V], the protein stability index is 1.63. The same measure, in the same setting: to WLYCYDPVMDVWARKQDMNTKRQI [A23Q] belongs 2.11. The same measure, in the same setting: to WLYCYDPVMDVWARKQDMNTKRNI [A23N] belongs 1.7.

For the variant WLYCYDPVMDVWARKQDMNTKREI [A23E], the protein stability index stood at 2.33. As for WLYCYDPVMDVWARKQDMNTKRPI [A23P], the protein stability index stood at 1.58. Turning to WLYCYDPVMDVWARKQDMNTKRMI [A23M], the protein stability index was 2.22. Same read-out and setting: the result for WLYCYDPVMDVWARKQDMNTKRWI [A23W] reads 1.37.

In the case of WLYCYDPVMDVWARKQDMNTKRGI [A23G], the protein stability index stood at 1.51. On the same count and under the same terms, the result for WLYCYDPVMDVWARKQDMNTKRRI [A23R] reads 2.62. The same measure, in the same setting: to WLYCYDPVMDVWARKQDMNTKRSI [A23S] belongs 1.97; to WLYCYDPVMDVWARKQDMNTKRHI [A23H], 2.02.

For the variant WLYCYDPVMDVWARKQDMNTKRKI [A23K], the protein stability index worked out at 1.97. The same measure, in the same setting: the result for WLYCYDPVMDVWARKQDMNTKRFI [A23F] reads 2.24; that for WLYCYDPVMDVWARKQDMNTKRLI [A23L], 1.6; that for WLYCYDPVMDVWARKQDMNTKRDI [A23D], 2.22.

For WLYCYDPVMDVWARKQDMNTKRCI [A23C], the protein stability index stood at 1.78. On the same count and under the same terms, to WLYCYDPVMDVWARKQDKNTKRAI [M18K] belongs 2.1; to WLYCYDPVMDVWARKQDYNTKRAI [M18Y], 2.17; to WLYCYDPVMDVWARKQDHNTKRAI [M18H], 2.55.

For WLYCYDPVMDVWARKQDWNTKRAI [M18W], the protein stability index came out at 2.86.

For WLYCYDPVMDVWARKQDVNTKRAI [M18V], the protein stability index came out at 2.19. On the same count and under the same terms, the result for WLYCYDPVMDVWARKQDTNTKRAI [M18T] reads 2.13; that for WLYCYDPVMDVWARKQDLNTKRAI [M18L], 1.82; that for WLYCYDPVMDVWARKQDDNTKRAI [M18D], 3.05. As to WLYCYDPVMDVWARKQDRNTKRAI [M18R], the protein stability index was 2.48. Still for that read-out and setting: the result for WLYCYDPVMDVWARKQDFNTKRAI [M18F] reads 2.56; that for WLYCYDPVMDVWARKQDENTKRAI [M18E], 2.4; that for WLYCYDPVMDVWARKQDGNTKRAI [M18G], 3.03. Still for that read-out and setting: the result for WLYCYDPVMDVWARKQDQNTKRAI [M18Q] reads 2.08. On the same count and under the same terms, the result for WLYCYDPVMDVWARKQDPNTKRAI [M18P] reads 1.98; that for WLYCYDPVMDVWARKQDNNTKRAI [M18N], 2.77; that for WLYCYDPVMDVWARKQDINTKRAI [M18I], 2.28.

In the case of WLYCYDPVMDVWARKQDSNTKRAI [M18S], the protein stability index stood at 2.39.

With WLYCYDPVMDVWARKQDMNTERAI [K21E], the protein stability index stood at 1.91.
